According to US20240052064A1 (Bristol-Myers Squibb, published 2024):
Numbering of substitutions follows the chain as printed.

T1: Human BCMA, TPP208 (human, UniProt Q02223 1-54, limits assumed)
T1 construct: also called Antigen 1
T1 sequence (looked up): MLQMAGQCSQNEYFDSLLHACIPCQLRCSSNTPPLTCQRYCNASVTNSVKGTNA

T2: BCMA (human, UniProt Q02223 1-54, limits assumed)
T2 construct: also called B cell maturation antigen; TNFRSF17
T2 sequence (looked up): T1 sequence (looked up)

T3: BCMA on cells (JEKO cells, plasmablasts) (human, UniProt Q02223 1-184)
T3 sequence (looked up): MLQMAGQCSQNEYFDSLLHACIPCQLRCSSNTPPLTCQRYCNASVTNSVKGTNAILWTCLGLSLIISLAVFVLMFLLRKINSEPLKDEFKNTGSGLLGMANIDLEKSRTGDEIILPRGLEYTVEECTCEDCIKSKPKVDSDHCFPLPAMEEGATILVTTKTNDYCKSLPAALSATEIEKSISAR

B1: Mab101 (bispecific antibody, human IgG1, L234A L235A)
heavy 1: not shown
heavy 2: not shown
light 1: not shown
light 2: EVQLLESGGGLVQPGGSLRLSCAASGFTFSTYAMNWVRQAPGKGLEWVSRIRSKYNNYATYYADSVKGRFTISRDDSKNTLYLQMNSLRAEDTAVYYCVRHGNFGNSYVSWFAYWGQGTLVTVSSASVAAPSVFIFPPSDEQLKSGTASVVCLLNNFYPREAKVQWKVDNALQSGNSQESVTEQDSKDSTYSLSSTLTLSKADYEKHKVYACEVTHQGLSSPVTKSFNRGEC
notes: also called BCMA TCE; BCMA T cell engager
B2: 22-TCBcv (bispecific antibody, human IgG1, kappa, L234A L235A)
heavy 1: not shown
heavy 2: EVQLLESGGGLVQPGGSLRLSCAASGFTFSDNAMGWVRQAPGKGLEWVSAISGPGSSTYYADSVKGRFTISRDNSKNTLYLQMNSLRAEDTAVYYCAKVLGWFDYWGQGTLVTVSSASTKGPSVFPLAPSSKSTSGGTAALGCLVEDYFPEPVTVSWNSGALTSGVHTFPAVLQSSGLYSLSSVVTVPSSSLGTQTYICNVNHKPSNTKVDEKVEPKSCDKTHTCPPCPAPEAAGGPSVFLFPPKPKDTLMISRTPEVTCVVVDVSHEDPEVKFNWYVDGVEVHNAKTKPREEQYNSTYRVVSVLTVLHQDWLNGKEYKCKVSNKALGAPIEKTISKAKGQPREPQVCTLPPSRDELTKNQVSLSCAVKGFYPSDIAVEWESNGQPENNYKTTPPVLDSDGSFFLVSKLTVDKSRWQQGNVFSCSVMHEALHNHYTQKSLSLSPGK
light 1: EIVLTQSPGTLSLSPGERATLSCRASQSVSSYYLAWYQQKPGQAPRLLISGAGSRATGIPDRFSGSGSGTDFTLTISRLEPEDFAVYYCQQYGYPPDFTFGQGTKVEIKRTVAAPSVFIFPPSDRKLKSGTASVVCLLNNFYPREAKVQWKVDNALQSGNSQESVTEQDSKDSTYSLSSTLTLSKADYEKHKVYACEVTHQGLSSPVTKSFNRGEC
light 2: B1 light 2
B3: CC-93269 (bispecific antibody, human IgG1, kappa, L234A L235A)
heavy 1: not shown
heavy 2: B2 heavy 2
light 1: B2 light 1 with S31D, Y32E, A35S, S50H, G51S, G53S, S54T, T75A
light 2: B1 light 2
notes: also called 42-TCBcv; BCMA TCE
B4: 83A10-TCBcv (bispecific antibody, human IgG1, kappa, L234A L235A)
heavy 1: not shown
heavy 2: not shown
light 1: not shown
light 2: B1 light 2

What was measured:
Human BCMA, TPP208 [1] = target: T1, Human BCMA, TPP208; assay: SPR (Biacore T200), single-cycle kinetics, antibody captured on anti-human IgG, antigen injected; sensorgram of sample stored at pH 8, 40 C compared with the non-stressed standard
Description: (§1) SPR experiments were performed using a Biacore T200 system (GE Healthcare, Uppsala, Sweden) with analysis and sample compartment temperatures set at 25° C. and 7° C. respectively.
(§2) Anti-Human IgG (from anti-human IgG Capture Kit) was amine coupled to the surface of a CM5 chip according to the manufacturer's instructions. Molecule bispecific antibodies diluted to 1 μg/mL in running buffer were captured on the chip surface in a 60 s injection. Following the single-cycle kinetics procedure, antigen was next injected five times (30 s per injection) at incrementally increasing concentrations at a flow rate of 30 μL/min. Antigen concentrations ranged from 0.08 to 50 nM for BCMA and between 12.7 to 1000 nM for CD3. A 300 s dissociation time was added after the last antigen injection. Following each experiment, all flow cells were regenerated using a 30 s injection of 3M MgCl₂.
(§3) Prior to analysis, data were double referenced by first subtracting data from a reference flow cell and then subtracting a blank cycle where buffer was injected instead of antigen. The sensorgram comparison analysis was implemented using a Biacore T200 (software version 3.0). All data were normalized with respect to the response where 100% reflects the maximum binding obtained during injection and 0% reflects the baseline. Average and ±3 standard deviation (SD) sensorgrams were calculated from ten or more independent sensorgrams of each molecule's non-stressed material (standard). For quantitation of binding similarities of the stressed samples against the corresponding non-stressed standard, sample sensorgrams were co-evaluated with the sensorgrams of the standard. The degree of similarity was calculated based on how many sample data points fell inside or outside the ±3 standard deviation limits according to Equation 2, where SSQ is the sum of squares (Karlsson, R, Pol, E., and Frostell, A. (2016); Analytical Biochemistry 502, 53-63).

Human CD3ED, TPP401 [2] = target: T4, Human CD3ED, TPP401 (human, UniProt P07766 23-126; P04234 22-105); assay: as above
T4 construct: 'CD3ED' is read here as the CD3 epsilon/delta pair; also called Antigen 2
T4 sequence (P07766 23-126, chain 1 of 2): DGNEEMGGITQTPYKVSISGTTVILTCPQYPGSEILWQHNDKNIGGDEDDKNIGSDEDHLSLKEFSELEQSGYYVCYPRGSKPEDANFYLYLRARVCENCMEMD
T4 sequence (P04234 22-105, chain 2 of 2): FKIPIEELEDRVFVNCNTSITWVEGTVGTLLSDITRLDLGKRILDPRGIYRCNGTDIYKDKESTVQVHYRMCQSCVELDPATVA
Description: as §1, §2, §3

BCMA = target: T2, BCMA
Human BCMA, TPP208 [3] = target: T1, Human BCMA, TPP208; assay: SPR (Biacore T200), single-cycle kinetics, antibody captured on anti-human IgG, antigen injected; sensorgram of sample stored at pH 4, 40 C compared with the non-stressed standard
Description: as §1, §2, §3

Human CD3ED, TPP401 [4] = target: T4, Human CD3ED, TPP401; assay: as above
Description: as §1, §2, §3

Human BCMA, TPP208 [5] = target: T1, Human BCMA, TPP208; assay: SPR (Biacore T200), single-cycle kinetics, antibody captured on anti-human IgG, antigen injected; sensorgram of sample stored at pH 6 with tert-butyl peroxide, 40 C compared with the non-stressed standard
Description: as §1, §2, §3

Human CD3ED, TPP401 [6] = target: T4, Human CD3ED, TPP401; assay: as above
Description: as §1, §2, §3

[7] = target: T3, BCMA on cells (JEKO cells, plasmablasts); assay: cell-based or functional assay
Human BCMA, TPP208 [8] = target: T1, Human BCMA, TPP208; assay: SPR (Biacore T200), single-cycle kinetics, antibody captured on anti-human IgG, antigen injected; sensorgram of sample stored at pH 6, 40 C compared with the non-stressed standard
Description: as §1, §2, §3

Human CD3ED, TPP401 [9] = target: T4, Human CD3ED, TPP401; assay: as above
Description: as §1, §2, §3

[10] = target: T3, BCMA on cells (JEKO cells, plasmablasts); assay: cell-based or functional assay; remark: listed apart in the source
[11] = target: T3, BCMA on cells (JEKO cells, plasmablasts); assay: cell-based or functional assay; remark: listed apart in the source
[12] = target: T3, BCMA on cells (JEKO cells, plasmablasts); assay: cell-based or functional assay; remark: listed apart in the source
[13] = target: T3, BCMA on cells (JEKO cells, plasmablasts); assay: cell-based or functional assay; remark: listed apart in the source

| Binder | pH 8 SPR % similarity-BCMA (Human BCMA, TPP208 [1]) | pH 8 SPR % similarity-CD3 (Human CD3ED, TPP401 [2]) | Kd (BCMA) | pH 4 SPR % similarity-BCMA (Human BCMA, TPP208 [3]) | pH 4 SPR % similarity-CD3 (Human CD3ED, TPP401 [4]) | pH 6-TBP SPR % similarity-BCMA (Human BCMA, TPP208 [5]) | pH 6-TBP SPR % similarity-CD3 (Human CD3ED, TPP401 [6]) | EC50 for BM plasmablast killing (nM), bone marrow mononuclear cells, 24 h [7] | pH 6 SPR % similarity-BCMA (Human BCMA, TPP208 [8]) | pH 6 SPR % similarity-CD3 (Human CD3ED, TPP401 [9]) | EC50 PB killing (nM), AAV-1 (n = 1) [10] | EC50 for JEKO cell killing (nM), T cell-mediated, annexin V, 20 h, T:E 1:2 [11] | further results |
| --- | --- | --- | --- | --- | --- | --- | --- | --- | --- | --- | --- | --- | --- |
| B1 | 99.9% | 71.5% | 1.1 nM | 100% | 99.9% | 82.5% | 75.3% | 0.266 nM | 100% | 100% | 0.236 nM | 5.72 nM | EC50 PB killing (nM), healthy volunteers (n = 2) [10]: 0.257 nM |
| B2 | 95.8% | 59.5% | – | 84.8% | 99.6% | 71.9% | 58.5% | – | 99.8% | 99.5% | – | – | – |
| B3 | – | – | 0.14 nM | – | – | – | – | 0.0201 nM | – | – | 0.01 nM | 2.79 nM | EC50 for plasmablast killing in AAV, PBMC, 24 h [12]: 0.007 nM; EC50 for plasmablast killing in RA, PBMC, 24 h [12]: 0.001 nM; EC50 for plasmablast killing in SLE (n=5), PBMC, 24 h [12]: 0.01 nM; EC50 for plasmablast killing in healthy volunteers (n=12), PBMC, 24 h [12]: 0.005 nM; Plasmablast depletion EC50 (nM), PBMC from healthy volunteers, soluble BCMA 0 ng/ml [13]: 0.005 nM; Plasmablast depletion EC50 (nM), PBMC from healthy volunteers, soluble BCMA 16.8 ng/ml [13]: 0.025 nM; Plasmablast depletion EC50 (nM), PBMC from healthy volunteers, soluble BCMA 33.6 ng/ml [13]: 0.13 nM; Plasmablast depletion EC50 (nM), PBMC from healthy volunteers, soluble BCMA 67.6 ng/ml [13]: 0.32 nM; EC50 PB killing (nM), healthy volunteers (n = 6) [10]: 0.029 nM |
| B4 | 90.8% | 57.5% | – | 99.4% | 100% | 72% | 59.7% | – | 100% | 99.9% | – | – | – |
